From patent US20140141019A1

Assays:
Experiment in all cases: SPOT alanine scanning, spot intensity
[1] = biological target: HER3 peptide 342-356 … with Asp352 replaced by alanine (human)
[2] = biological target: HER3 peptide 343-357 … with Asp352 replaced by alanine (human)
[3] = biological target: HER3 peptide 344-358 … with Asp352 replaced by alanine (human)
[4] = biological target: alanine analogs at Pro353 and Ile357 of the HER3 pentadecapeptides 342-356, 343-357 and 344-358

B1: mAb H4B-121 (purified human IgG) (antibody, V domains shown)
VH: EVQLVESGGGLVQPGRSLRLSCAASGFTFDDYAMHWVRQAPGKGLEWVSGISWNSGSIGYADSVKGRFTISRDNAKNSLYLQMNSLRAEDTAVYYCAREGQWPNYGMDVWGQGTTVTVSS
VL: QSVLTQPPSVSAAPGQKVTISCPGSSSNIGNNYVSWYQQLPGTAPKLLIYDNNERPSGIPDRFSGSTSGTSATLDITDLQAEDEATYYCGAWDNTLGVYVLGTGTQLTVL
B1 gave a decrease in binding capacity against the unmodified peptide [1] of 92%, a decrease in binding capacity against the unmodified peptide [2] of 92% and a decrease in binding capacity against the unmodified peptide [3] of 92%. For the same binder, the decrease in antibody reactivity against the unmodified peptide [4] was 40 to 60%.
